The text below walks through data of PMC3181223.

The target in data set [1] is Actin purified from rabbit muscle (rabbit) (UniProt P68135). As to the kind of experiment: depolymerisation of single filaments in a microfluidic flow (fluorescence microscopy); filaments grown from MgATP-actin, depolymerised in F-buffer (pH 7.8, 100 mM KCl, 1 mM MgCl2); velocities from an exponential fit of 1/vdepol against the age of F-actin, and from a direct fit of length against time; room temperature.

Data set [2] deals with P68135. Put plainly: depolymerisation of single filaments in a microfluidic flow (fluorescence microscopy); filaments grown from MgATP-actin, depolymerised in F-buffer (pH 7.8, 100 mM KCl, 1 mM MgCl2); velocities from an exponential fit of 1/vdepol against the age of F-actin, and from a direct fit of length …. To be noted: other: depolymerisation of single filaments in a microfluidic flow (fluorescence microscopy).

Data set [3] concerns the target Actin purified from rabbit muscle (rabbit) (UniProt P68135). As to the kind of experiment: depolymerisation of single filaments in a microfluidic flow (fluorescence microscopy); CrATP-actin filaments (as ADP-Pi-actin) depolymerising at different profilin concentrations; saturation curve of the off-rate fitted assuming profilin in rapid equilibrium with the barbed end; room temperature.

Data set [4] has the same target. As to the kind of experiment: depolymerisation of single filaments in a microfluidic flow (fluorescence microscopy); MgADP-actin filaments depolymerising at different profilin concentrations; saturation curve of the off-rate fitted assuming profilin in rapid equilibrium with the barbed end; room temperature.

As for “Actin purified from rabbit muscle (from UniProt P68135 1-377) (natural protein)”, in data set [1], the depolymerization velocity of ADP-actin subunits at the barbed end (direct fit of length against time) was 6 subunits/s and the depolymerization velocity of ADP-actin subunits at the barbed end (exponential fit) amounted to 6.2 subunits/s.
Regarding Actin purified from rabbit muscle, in data set [2], the “global depolymerization velocity of ADP-Pi-actin subunits at the barbed end (direct fit of length against time)” value stood at 1.5 subunits/s; the “global depolymerization velocity of ADP-Pi-actin subunits at the barbed end (dissociation as ADP-Pi-actin, or Pi release and then dissociation; exponential fit)” value came out at 1.5±0.4 subunits/s.
In the case of “profilin-actin (from UniProt P62962 1-140; P68135 1-377) (complex)”, the koff – broadly, the first-order rate constant of dissociation – in data set [3] turned out to be 4.7 s⁻¹; in data set [4], 51.6 s⁻¹.
